{"source": "patent US20250313634A1", "about": "(WUXI BIOLOGICS SHANGHAI, published 2025)", "key": {"[1]": {"biological_target": "T1, PD-L2 expressed on transfected CHO cells (Homo sapiens (Human), UniProt Q9BQ51 20-273)", "T1 construct": "also called PD-L2 of PD-1 ligand family", "T1 sequence": "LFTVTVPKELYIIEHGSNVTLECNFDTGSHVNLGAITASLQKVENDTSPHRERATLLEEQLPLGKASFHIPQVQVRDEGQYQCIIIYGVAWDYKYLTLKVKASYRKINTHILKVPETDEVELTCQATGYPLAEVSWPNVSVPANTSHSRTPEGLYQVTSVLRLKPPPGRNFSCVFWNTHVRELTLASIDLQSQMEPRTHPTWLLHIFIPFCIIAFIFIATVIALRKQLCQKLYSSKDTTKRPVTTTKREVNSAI", "test": "FACS on PD-L2 transfected CHO-K1 cells, single bar, antibody concentration not shown", "experimental": "3.8 Cross-family binding assay by FACS: to examine the cross-family binding activity of the fully human antibodies, cells lines that express PD-L2 were stained with the fully human antibodies, followed by 2nd antibody staining with FITC conjugated goat anti-human IgG Fc. PD-L1 expressing cells were used as positive control. Corresponding parental cell lines were used as negative controls. The stained cells were analyzed by using a BD Biosciences FACSCanto II and FlowJo Version software.\nCHO cells transfected with PD-L1 or PD-L2 were stained with fully human PD-L1 antibodies and analysis by FACS."}, "[2]": {"biological_target": "T2, hPD-L1_ECD.His point mutant V68A (human, UniProt Q9NZQ7 19-238)", "T2 construct": "extracellular domain", "T2 sequence (Q9NZQ7 19-238 V68A)": "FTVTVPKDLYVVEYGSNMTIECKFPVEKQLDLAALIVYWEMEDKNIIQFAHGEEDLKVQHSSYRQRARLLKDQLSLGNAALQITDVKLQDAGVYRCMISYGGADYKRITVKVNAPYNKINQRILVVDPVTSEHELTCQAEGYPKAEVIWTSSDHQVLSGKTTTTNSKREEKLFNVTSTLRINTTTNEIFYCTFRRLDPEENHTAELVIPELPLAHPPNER", "test": "capture ELISA on coated 1.14.4; relative to silent alanine substitutions", "experimental": "(§1) After interacting with the supernatant that contains quantified PD-L1 mutant or human/mouse PD-L1_ECD.His protein (Sino Biological, China), HRP conjugated anti-His antibody (1:5000; Rockland Immunochemicals, Pottstown, PA) was added as detection antibody. Absorbance was normalized according to the average of control mutants. After setting an additional cutoff to the binding fold change (<0.55), the final determined epitope residues were identified.\n(§2) The observed binding reductions most probably resulted from the instability or even collapse of hPD-L1 structure after alanine substitutions. After setting an additional cutoff to the binding fold change (<0.55), the final determined epitope residues were listed in Table 3."}, "[3]": {"biological_target": "T3, hPD-L1_ECD.His point mutant R82A (human, UniProt Q9NZQ7 19-238)", "T3 construct": "extracellular domain", "T3 sequence (Q9NZQ7 19-238 R82A)": "as the sequence (Q9NZQ7 19-238 V68A) above, with A50V, R64A counted along it", "test": "capture ELISA on coated 1.14.4; relative to silent alanine substitutions", "experimental": "as §1, §2"}, "[4]": {"biological_target": "T4, hPD-L1_ECD.His point mutant A52G (human, UniProt Q9NZQ7 19-238)", "T4 construct": "extracellular domain", "T4 sequence (Q9NZQ7 19-238 A52G)": "as the sequence (Q9NZQ7 19-238 V68A) above, with A34G, A50V counted along it", "test": "capture ELISA on coated 1.14.4; relative to silent alanine substitutions", "experimental": "as §1, §2"}, "[5]": {"biological_target": "T5, hPD-L1_ECD.His point mutant A121G (human, UniProt Q9NZQ7 19-238)", "T5 construct": "extracellular domain", "T5 sequence (Q9NZQ7 19-238 A121G)": "as the sequence (Q9NZQ7 19-238 V68A) above, with A50V, A103G counted along it", "test": "capture ELISA on coated 1.14.4; relative to silent alanine substitutions", "experimental": "as §1, §2"}, "[6]": {"biological_target": "T6, hPD-L1_ECD.His point mutant G95A (human, UniProt Q9NZQ7 19-238)", "T6 construct": "extracellular domain", "T6 sequence (Q9NZQ7 19-238 G95A)": "as the sequence (Q9NZQ7 19-238 V68A) above, with A50V, G77A counted along it", "test": "capture ELISA on coated 1.14.4; relative to silent alanine substitutions", "experimental": "as §1, §2"}, "[7]": {"biological_target": "T7, hPD-L1_ECD.His point mutant E205A (human, UniProt Q9NZQ7 19-238)", "T7 construct": "extracellular domain", "T7 sequence (Q9NZQ7 19-238 E205A)": "as the sequence (Q9NZQ7 19-238 V68A) above, with A50V, E187A counted along it", "test": "capture ELISA on coated 1.14.4; relative to silent alanine substitutions", "experimental": "as §1, §2"}, "[8]": {"biological_target": "T8, hPD-L1_ECD.His point mutant Y160A (human, UniProt Q9NZQ7 19-238)", "T8 construct": "extracellular domain", "T8 sequence (Q9NZQ7 19-238 Y160A)": "as the sequence (Q9NZQ7 19-238 V68A) above, with A50V, Y142A counted along it", "test": "capture ELISA on coated 1.14.4; relative to silent alanine substitutions", "experimental": "as §1, §2"}, "[9]": {"biological_target": "T9, hPD-L1_ECD.His point mutant R86A (human, UniProt Q9NZQ7 19-238)", "T9 construct": "extracellular domain", "T9 sequence (Q9NZQ7 19-238 R86A)": "as the sequence (Q9NZQ7 19-238 V68A) above, with A50V, R68A counted along it", "test": "capture ELISA on coated 1.14.4; relative to silent alanine substitutions", "experimental": "as §1, §2"}, "murine PD-L1": {"biological_target": "T10, murine PD-L1 (mouse, UniProt Q9EP73 19-238, limits assumed)", "T10 construct": "also called mouse PD-L1 (coated on ELISA plates)", "T10 sequence (Q9EP73 19-238 limits assumed)": "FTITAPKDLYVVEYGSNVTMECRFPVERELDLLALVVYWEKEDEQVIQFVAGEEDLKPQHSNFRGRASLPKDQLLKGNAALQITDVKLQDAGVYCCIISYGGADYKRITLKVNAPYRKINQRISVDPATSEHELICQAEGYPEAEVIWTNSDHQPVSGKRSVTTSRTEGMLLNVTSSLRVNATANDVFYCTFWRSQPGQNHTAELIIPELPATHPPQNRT", "test": "ELISA, murine PD-L1 coated on the plate, goat anti-human IgG Fc-HRP; antibody concentration not shown", "experimental": "3.7 Cross-species binding assay: the cross-reactivity of the Ab to cynomolgus and murine PD-L1 was measured by ELISA. Human, cyno and mouse PD-L1 were coated on ELISA plates, respectively. After blocking, fully human antibodies were added into the plate and incubated at room temperature for at least 2 hours. The binding of the antibodies to the coated antigens was detected by using goat anti-human IgG Fc-HRP. The color reaction was developed using TMB substrate and stopped by 2M HCl. The ELISA plates were analyzed at 450 nm using a Molecular Device M5e microplate reader."}, "[10]": {"biological_target": "T11, full-length human PD-L1 expressed on CHO cells (human, UniProt Q9NZQ7 19-290)", "T11 construct": "whole, on cells; also called CHO-K1 cells expressing human PD-L1; PD-L1 transfected CHO cells", "T11 sequence (Q9NZQ7 19-290)": "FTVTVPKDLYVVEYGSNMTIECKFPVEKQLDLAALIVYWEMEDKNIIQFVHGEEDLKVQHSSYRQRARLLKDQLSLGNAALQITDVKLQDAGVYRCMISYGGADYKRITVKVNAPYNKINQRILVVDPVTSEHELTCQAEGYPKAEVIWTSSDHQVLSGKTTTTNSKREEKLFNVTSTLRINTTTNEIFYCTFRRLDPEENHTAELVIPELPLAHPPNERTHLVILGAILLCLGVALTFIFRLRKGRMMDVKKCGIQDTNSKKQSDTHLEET", "test": "FACS competition on CHO cells expressing human PD-L1; competitor mouse Fc-tagged human PD-1", "experimental": "3.1 Competition assay by FACS: to examine whether the fully human antibodies can block the binding of PD-L1 to PD-1, the CHO-K1 cells expressing human PD-L1 were incubated with various concentrations of the fully human antibodies at 4° C. for 1 hour. The unbound antibodies were washed away, and then the mouse Fc-tagged human PD-1 was added to the cells. The binding of human PD-1 to PD-L1 expressing cell was detected by using FITC-conjugated goat anti-mouse IgG, followed by the analysis using a BD Biosciences FACSCanto II and FlowJo Version software.\nThen the mouse Fc-tagged human PD-1 was added to the cells. The binding of human PD-1 to PD-L1 expressing cell was detected by using FITC-conjugated goat anti-mouse IgG, followed by the FACS analysis."}, "recombinant human PD-L1": {"biological_target": "T12, recombinant human PD-L1 (human, UniProt Q9NZQ7 19-238, limits assumed)", "T12 construct": "Used for the SPR analyte (3.2) and for the plate-coated human PD-L1 of the cross-species ELISA (3.7); also called human PD-L1 (SPR analyte); Human PD-L1 coated on ELISA plates", "T12 sequence (Q9NZQ7 19-238 limits assumed)": "as the sequence (Q9NZQ7 19-238 V68A) above, with A50V counted along it", "test": "surface plasmon resonance per legend paragraph 39 and paragraph 188; column Best fit-KD, mol/L from the legend", "from_the_text": "3.2 Affinity test by surface plasmon resonance (SPR): Antibodies were characterized for affinity and binding kinetics to PD-L1 by SPR assay using ProteOn XPR36 (Bio-Rad). Protein A protein (Sigma) was immobilized to a GLM sensor chip (Bio-Rad) through amine coupling. Purified antibodies were flowed over the sensor chip and captured by the Protein A. The chip was rotated […] and washed with running buffer (1×PBS/0.01% Tween20, Bio-Rad) until the baseline is stable. Five concentrations of human PD-L1 and running buffer were flowed against the antibody flow cell at a flow rate 100 μL/min for an association phase of 240s, followed by 600s dissociation. The chip was regenerated with pH 1.7 H₃PO₄ after each run. The association and dissociation curve was fit to a 1:1 Langmiur binding model using ProteOn software."}}, "data": [{"binder": "1.14.4 (antibody, V domains shown, Fully human monoclonal antibody with a human constant region of IgG4 isotype) VH: EVQLLESGGGLVQPGGSLRLSCAASGFTFSSYAMSWVRQAPGKGLEWVSGISGSGGFTYYADSVKGRFTISRDNSKNTLYLQMNSLRAEDTAVYYCAKPPRGYNYGPFDYWGQGTLVTVSS VL: SYVLTQPPSVSVAPGQTARITCGGNNIGSKSVHWYQQKPGQAPVLVVYDDSDRPSGIPERFSGSNSGNTATLTISRVEAGDEADYYCQVWDSSSDHVVFGGGTKLTVL", "values": [{"measurement": "binding result", "setting": "[1]", "value": "no binding"}, {"measurement": "fold change", "setting": "[2]", "value": 0.707, "unit": "fold"}, {"measurement": "fold change", "setting": "[3]", "value": 0.934, "unit": "fold"}, {"measurement": "fold change", "setting": "[4]", "value": 0.622, "unit": "fold"}, {"measurement": "fold change", "setting": "[5]", "value": 1.15, "unit": "fold"}, {"measurement": "fold change", "setting": "[6]", "value": 0.668, "unit": "fold"}, {"measurement": "fold change", "setting": "[7]", "value": 0.801, "unit": "fold"}, {"measurement": "fold change", "setting": "[8]", "value": 0.505, "unit": "fold"}, {"measurement": "fold change", "setting": "[9]", "value": 1, "unit": "fold"}, {"measurement": "binding result", "setting": "murine PD-L1", "value": "no binding"}, {"measurement": "IC50", "setting": "[10]", "value": "~10", "unit": "nM"}, {"measurement": "Kd", "setting": "recombinant human PD-L1", "value": 0.392, "unit": "nM"}]}]}
